Assay results from patent US8715736B2, “Nanoparticle formulations for skin delivery” (Florida Agricultural and Mechanical University, priority 2009, dated 2014).
Converted amounts (≈) assume the structure as drawn. Where no end group is shown, it is not given here.

Assays:
Solubility of CXB = assay type: physicochemical
[1] = Iso-electric point of CPP peptides (Table 1); assay type: physicochemical
Source text: Celecoxib (CXB) was provided by Pfizer (Skokie, Ill.). The triglyceride Miglyol 812 was obtained from Sasol Germany GmbH (Witten, Germany) and Compritol 888 ATO was provided by Gattefosse (Saint Priest, France). The phospholipids 1-palmitoyl-2-oleoyl-phosphatidylcholine (POPC), 1,2-dioleoyl-sn-glycero-3-phosphoethanolamine (DOPE) and 1,2-di-(9Z-octadecenoyl)-sn-glycero-3-[(N-(5-amino-1-carboxypentyl)iminodiacetic acid)succinyl] (nickel salt) (DOGS-NTA-Ni) were purchased from Avanti Polar Lipids (USA). Cholesterol, Tween 80, pH 7.4 phosphate buffer saline (PBS), paraformaldehyde, tetrahydrofuran (THF), trifluoro acetic acid (TFA), and dialysis membranes (molecular weight cut off 12,400 daltons and flat width of 23 mm) were procured from Sigma-Aldrich Chemicals (St. Louis, USA). Polyoxyethylene-20 oleyl ether or Volpo-20 (Oleth-20) was a kind gift from Croda Inc (New Jersey, USA). Vivaspin centrifuge filters (molecular weight cut off 10,000 Daltons) was procured from Sartorius Ltd, (Stonehouse, UK). All other chemicals used herein were of analytical grade. All of the CPP peptides were synthesized by GenScript Corporation (NJ, USA). Sce Table 1 below for details of the composition, molecular weight and iso-electric points of the CPPs. Fluorescent Isothiocyanate (FITC), DID-oil and DIO fluorescent dyes were procured from Invitrogen (USA).

solubility (Solubility of CXB; 0.1% w/v Volpo 20 in pH 7.4 PBS, aqueous with cosolvent or surfactant or cyclodextrin, in 0.1% Volpo 20 (receptor fluid, pH 7.4 PBS), read-out: saturation solubility)	solubility in water (Solubility of CXB; water)	Molecule	Iso-electric point [1]
30 µg/mL (≈ 78.7 µM)	insoluble in water	Cc1ccc(-c2cc(C(F)(F)F)nn2-c2ccc(S(N)(=O)=O)cc2)cc1 [CXB, Celecoxib]	–
–	–	RRRRRRRRHHHHHH (synthetically generated peptide) [R8]	13.2
–	–	RRRRRRRRRRRHHHHHH (synthetically generated peptide) [R11]	13.4
–	–	RRRRRRRRRRRRRRRHHHHHH (synthetically generated peptide) [R15]	13.5
–	–	YGRKKRRQRRRHHHHHH [TAT]	12.7
–	–	YKALRISRKLAKHHHHHH (syntheticall generated peptide) [reference compound]	11.6
